# PMC4287557
# Key:
# [1] = target: JRFL SOSIP trimer (HIV-1 subtype B, truncated at residue 663), negatively selected (HIV-1 subtype B strain JRFL)
# [2] = target: JRFL SOSIP trimer (HIV-1 subtype B, truncated at residue 663), negatively selected (HIV-1 subtype B strain JRFL); test: negative-stain EM; negatively selected SOSIP trimers incubated with a ten molar excess of Fab or four-domain sCD4 at RT for 1 hour; 2% uranyl formate; 2D class averages (occupancy) and 3D reconstructions
# [3] = target: 16055 SOSIP trimer (HIV-1 subtype C, truncated at residue 663), negatively selected (HIV-1 subtype C strain 16055); test: as above
# Chain of PGT151 Fab (VH): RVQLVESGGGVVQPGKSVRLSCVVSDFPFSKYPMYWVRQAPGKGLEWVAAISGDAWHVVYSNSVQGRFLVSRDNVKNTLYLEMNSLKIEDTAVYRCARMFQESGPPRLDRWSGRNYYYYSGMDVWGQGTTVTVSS
# Chain of PGT151 Fab (VL): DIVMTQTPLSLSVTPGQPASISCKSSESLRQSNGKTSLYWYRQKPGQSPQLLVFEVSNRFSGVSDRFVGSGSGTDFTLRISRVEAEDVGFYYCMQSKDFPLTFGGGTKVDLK
substance,measurement,setting,value
PGT151 Fab,"increase of the melting temperature (Tm) of the JRFL SOSIP-Fab complex over the trimer alone, DSF",[1],2.1 °C
same,percent of trimers with one Fab bound,[2],28%
same,percent of trimers with three Fabs bound,[2],11%
same,percent of trimers with two Fabs bound,[2],36%
same,percent of trimers with one Fab bound,[3],34%
same,percent of trimers with three Fabs bound,[3],0%
same,percent of trimers with two Fabs bound,[3],20%
